Reference: patent US20260055162A1

What was measured:
Assay in all cases: cell-based or functional assay
[1] = target: AA-TGFB-082 (TGFB-082), TGF-BR2 ECD-NKp46 TM-NKp46 ICD
[2] = target: AA-TGFB-087 (TGFB-087), TGF-BR2 ECD-TLR4 TM-TLR4 ICD
[3] = target: AA-TGFB-094 (TGFB-094), TGF-BR2 ECD-CD28 Long TM-Lyn ICD
[4] = target: AA-TGFB-075 (TGFB-075), TGF-BR2 ECD-SLAMF3 TM-SLAMF3 ICD
[5] = target: AA-TGFB-069 (TGFB-069), TGF-BR2 ECD-2B4 TM-2B4 ICD
[6] = target: AA-TGFB-083 (TGFB-083), TGF-BR2 ECD-NKp44 TM-NKp44 ICD
[7] = target: AA-TGFB-067 (TGFB-067), TGF-BR2 ECD-FCGR2A TM-FCGR2A ICD
[8] = target: AA-TGFB-074 (TGFB-074), TGF-BR2 ECD-LFA2 TM-LFA2 ICD
[9] = target: AA-TGFB-065 (TGFB-065), TGF-BR2 ECD-CD28 Long TM-BLNK ICD
[10] = target: AA-TGFB-084 (TGFB-084), TGF-BR2 ECD-NKp30 TM-NKp30 ICD
[11] = target: AA-TGFB-091 (TGFB-091), TGF-BR2 ECD-CD28 Long TM-Syk ICD
[12] = target: AA-TGFB-061 (TGFB-061), TGF-BR2 ECD-CD28 Long TM-TRAF3 ICD
[13] = target: AA-TGFB-095 (TGFB-095), TGF-BR2 ECD-CD28 Long TM-YES1 ICD
[14] = target: AA-TGFB-080 (TGFB-080), TGF-BR2 ECD-DNAM1 TM-DNAM1 ICD
[15] = target: AA-TGFB-056 (TGFB-056), TGF-BR2 ECD-CD28 Long TM-SLP76 ICD
[16] = target: AA-TGFB-007 (TGFB-007), TGF-BR2 ECD-TGFBR2 TM-TGFBR2 truncated ICD (Homo sapiens (Human)) (UniProt P37173)
[17] = target: AA-TGFB-060 (TGFB-060), TGF-BR2 ECD-CD28 Long TM-TRAF2 ICD
Sequence of AA-TGFB-060 (TGFB-060), TGF-BR2 ECD-CD28 Long TM-TRAF2 ICD (chain, as listed by the source limits assumed, form in doubt): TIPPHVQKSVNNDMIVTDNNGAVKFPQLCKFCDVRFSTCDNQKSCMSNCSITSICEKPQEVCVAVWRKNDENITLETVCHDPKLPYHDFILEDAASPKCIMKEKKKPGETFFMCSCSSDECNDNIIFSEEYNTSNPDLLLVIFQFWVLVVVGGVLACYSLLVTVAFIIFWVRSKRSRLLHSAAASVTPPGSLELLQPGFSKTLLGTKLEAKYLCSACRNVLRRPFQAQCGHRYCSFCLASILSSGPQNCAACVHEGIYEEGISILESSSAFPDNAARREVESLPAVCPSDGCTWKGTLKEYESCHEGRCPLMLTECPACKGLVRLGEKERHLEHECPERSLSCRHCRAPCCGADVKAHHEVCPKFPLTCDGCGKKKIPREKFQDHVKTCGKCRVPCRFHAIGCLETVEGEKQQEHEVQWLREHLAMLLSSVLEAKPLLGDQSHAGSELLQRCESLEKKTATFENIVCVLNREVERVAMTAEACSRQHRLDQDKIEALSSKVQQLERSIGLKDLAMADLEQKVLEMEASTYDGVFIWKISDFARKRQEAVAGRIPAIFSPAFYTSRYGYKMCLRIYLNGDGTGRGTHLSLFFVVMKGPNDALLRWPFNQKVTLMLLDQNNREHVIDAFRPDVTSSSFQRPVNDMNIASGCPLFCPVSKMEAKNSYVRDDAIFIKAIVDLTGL

Sequence of AA-TGFB-061 (TGFB-061), TGF-BR2 ECD-CD28 Long TM-TRAF3 ICD (chain, as listed by the source limits assumed, form in doubt): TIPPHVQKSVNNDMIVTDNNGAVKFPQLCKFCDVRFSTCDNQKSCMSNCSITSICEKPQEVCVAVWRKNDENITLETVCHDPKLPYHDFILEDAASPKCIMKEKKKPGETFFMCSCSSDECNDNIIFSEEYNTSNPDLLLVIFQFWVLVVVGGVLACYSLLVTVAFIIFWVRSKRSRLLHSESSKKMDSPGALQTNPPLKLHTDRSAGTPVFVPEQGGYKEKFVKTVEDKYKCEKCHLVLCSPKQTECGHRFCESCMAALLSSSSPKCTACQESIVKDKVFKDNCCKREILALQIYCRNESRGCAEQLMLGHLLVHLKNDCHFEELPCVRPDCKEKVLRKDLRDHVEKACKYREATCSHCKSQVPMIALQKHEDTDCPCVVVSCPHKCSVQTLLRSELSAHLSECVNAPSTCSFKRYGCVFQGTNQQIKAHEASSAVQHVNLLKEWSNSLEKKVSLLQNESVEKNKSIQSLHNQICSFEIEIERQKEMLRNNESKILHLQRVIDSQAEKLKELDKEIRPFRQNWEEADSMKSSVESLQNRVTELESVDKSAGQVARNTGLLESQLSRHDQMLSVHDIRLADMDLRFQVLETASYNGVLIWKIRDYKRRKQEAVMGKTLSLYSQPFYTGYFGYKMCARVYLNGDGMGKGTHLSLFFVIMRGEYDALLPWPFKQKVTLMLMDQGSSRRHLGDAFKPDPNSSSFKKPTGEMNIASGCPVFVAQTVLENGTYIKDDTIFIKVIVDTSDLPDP
Sequence of AA-TGFB-065 (TGFB-065), TGF-BR2 ECD-CD28 Long TM-BLNK ICD (chain, as listed by the source limits assumed, form in doubt): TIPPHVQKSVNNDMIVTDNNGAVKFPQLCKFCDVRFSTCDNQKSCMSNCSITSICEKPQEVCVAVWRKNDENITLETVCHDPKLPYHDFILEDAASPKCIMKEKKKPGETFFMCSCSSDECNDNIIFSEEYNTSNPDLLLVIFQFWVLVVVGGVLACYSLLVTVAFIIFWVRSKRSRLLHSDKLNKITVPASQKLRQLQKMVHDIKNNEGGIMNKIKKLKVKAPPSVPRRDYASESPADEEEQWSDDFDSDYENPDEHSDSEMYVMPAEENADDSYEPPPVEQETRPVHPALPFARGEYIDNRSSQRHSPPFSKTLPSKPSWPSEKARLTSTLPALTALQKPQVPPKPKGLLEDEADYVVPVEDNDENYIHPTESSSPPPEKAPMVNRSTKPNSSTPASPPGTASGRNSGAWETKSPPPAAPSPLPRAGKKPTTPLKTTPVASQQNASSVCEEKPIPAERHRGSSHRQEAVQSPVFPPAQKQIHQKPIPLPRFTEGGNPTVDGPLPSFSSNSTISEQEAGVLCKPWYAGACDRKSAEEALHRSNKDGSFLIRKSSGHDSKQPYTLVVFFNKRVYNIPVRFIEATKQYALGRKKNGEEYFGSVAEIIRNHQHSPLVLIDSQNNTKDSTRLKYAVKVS
Sequence of AA-TGFB-067 (TGFB-067), TGF-BR2 ECD-FCGR2A TM-FCGR2A ICD (chain, as listed by the source limits assumed, form in doubt): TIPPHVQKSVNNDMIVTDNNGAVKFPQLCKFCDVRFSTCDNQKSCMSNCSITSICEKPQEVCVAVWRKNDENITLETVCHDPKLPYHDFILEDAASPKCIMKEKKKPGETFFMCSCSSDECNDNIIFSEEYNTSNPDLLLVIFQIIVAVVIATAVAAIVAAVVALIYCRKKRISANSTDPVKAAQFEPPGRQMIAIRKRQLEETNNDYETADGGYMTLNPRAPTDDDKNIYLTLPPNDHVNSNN
Sequence of AA-TGFB-007 (TGFB-007), TGF-BR2 ECD-TGFBR2 TM-TGFBR2 truncated ICD (Homo sapiens (Human)) (P37173 23-199, form in doubt): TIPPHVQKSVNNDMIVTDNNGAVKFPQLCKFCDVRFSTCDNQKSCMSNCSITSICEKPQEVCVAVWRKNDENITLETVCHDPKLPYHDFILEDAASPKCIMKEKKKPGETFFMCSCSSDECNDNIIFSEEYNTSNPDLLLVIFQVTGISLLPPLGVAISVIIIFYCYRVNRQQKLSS
Sequence of AA-TGFB-074 (TGFB-074), TGF-BR2 ECD-LFA2 TM-LFA2 ICD (chain, as listed by the source limits assumed, form in doubt): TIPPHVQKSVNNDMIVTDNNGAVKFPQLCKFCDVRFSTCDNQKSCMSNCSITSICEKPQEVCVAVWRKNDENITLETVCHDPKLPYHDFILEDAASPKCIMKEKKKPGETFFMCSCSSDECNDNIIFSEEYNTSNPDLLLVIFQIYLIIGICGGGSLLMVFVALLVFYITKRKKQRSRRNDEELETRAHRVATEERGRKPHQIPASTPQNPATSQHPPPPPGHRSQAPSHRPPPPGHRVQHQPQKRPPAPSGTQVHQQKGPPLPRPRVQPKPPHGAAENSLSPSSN
Sequence of AA-TGFB-056 (TGFB-056), TGF-BR2 ECD-CD28 Long TM-SLP76 ICD (chain, as listed by the source limits assumed, form in doubt): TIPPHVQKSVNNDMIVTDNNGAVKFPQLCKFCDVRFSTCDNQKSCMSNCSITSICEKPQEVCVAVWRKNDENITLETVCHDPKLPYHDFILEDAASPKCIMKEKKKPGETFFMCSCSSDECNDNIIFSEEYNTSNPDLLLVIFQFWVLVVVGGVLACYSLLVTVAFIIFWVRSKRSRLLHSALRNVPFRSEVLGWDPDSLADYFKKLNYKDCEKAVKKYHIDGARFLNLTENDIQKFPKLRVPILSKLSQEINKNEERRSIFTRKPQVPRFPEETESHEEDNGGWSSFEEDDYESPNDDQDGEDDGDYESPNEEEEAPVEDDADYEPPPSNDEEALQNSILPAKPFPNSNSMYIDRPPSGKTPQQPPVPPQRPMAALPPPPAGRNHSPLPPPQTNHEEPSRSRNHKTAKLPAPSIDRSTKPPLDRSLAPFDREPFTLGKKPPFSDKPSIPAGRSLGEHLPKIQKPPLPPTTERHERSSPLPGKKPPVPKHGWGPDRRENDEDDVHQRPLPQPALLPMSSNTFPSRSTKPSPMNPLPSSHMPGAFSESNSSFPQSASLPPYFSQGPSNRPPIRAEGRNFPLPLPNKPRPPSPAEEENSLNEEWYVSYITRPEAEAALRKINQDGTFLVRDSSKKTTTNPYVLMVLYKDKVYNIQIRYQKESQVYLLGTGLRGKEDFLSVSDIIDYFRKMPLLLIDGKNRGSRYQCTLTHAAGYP
Sequence of AA-TGFB-083 (TGFB-083), TGF-BR2 ECD-NKp44 TM-NKp44 ICD (chain, as listed by the source limits assumed, form in doubt): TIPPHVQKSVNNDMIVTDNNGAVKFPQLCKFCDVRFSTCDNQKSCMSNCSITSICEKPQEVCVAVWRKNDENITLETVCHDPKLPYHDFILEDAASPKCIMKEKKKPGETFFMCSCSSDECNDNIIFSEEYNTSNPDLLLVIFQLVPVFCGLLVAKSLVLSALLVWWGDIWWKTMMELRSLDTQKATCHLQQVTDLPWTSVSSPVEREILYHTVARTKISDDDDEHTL
Sequence of AA-TGFB-082 (TGFB-082), TGF-BR2 ECD-NKp46 TM-NKp46 ICD (chain, as listed by the source limits assumed, form in doubt): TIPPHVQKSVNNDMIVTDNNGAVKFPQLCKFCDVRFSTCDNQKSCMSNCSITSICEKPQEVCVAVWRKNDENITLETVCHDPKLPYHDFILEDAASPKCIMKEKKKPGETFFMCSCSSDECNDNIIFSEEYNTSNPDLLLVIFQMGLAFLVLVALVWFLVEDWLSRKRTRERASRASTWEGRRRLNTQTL
Sequence of AA-TGFB-080 (TGFB-080), TGF-BR2 ECD-DNAM1 TM-DNAM1 ICD (chain, as listed by the source limits assumed, form in doubt): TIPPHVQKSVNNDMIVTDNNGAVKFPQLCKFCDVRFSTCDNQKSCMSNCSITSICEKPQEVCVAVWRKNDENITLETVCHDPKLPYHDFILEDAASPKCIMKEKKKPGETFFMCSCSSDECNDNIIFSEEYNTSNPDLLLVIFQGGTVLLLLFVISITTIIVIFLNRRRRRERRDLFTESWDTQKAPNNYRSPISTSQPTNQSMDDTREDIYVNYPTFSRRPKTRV
Sequence of recombinant TGF-B1 cytokine (P01137 279-390 limits assumed): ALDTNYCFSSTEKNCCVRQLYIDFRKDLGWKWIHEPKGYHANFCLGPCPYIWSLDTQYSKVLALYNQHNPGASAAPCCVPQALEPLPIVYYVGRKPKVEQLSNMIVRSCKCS
Sequence of AA-TGFB-087 (TGFB-087), TGF-BR2 ECD-TLR4 TM-TLR4 ICD (chain, as listed by the source limits assumed, form in doubt): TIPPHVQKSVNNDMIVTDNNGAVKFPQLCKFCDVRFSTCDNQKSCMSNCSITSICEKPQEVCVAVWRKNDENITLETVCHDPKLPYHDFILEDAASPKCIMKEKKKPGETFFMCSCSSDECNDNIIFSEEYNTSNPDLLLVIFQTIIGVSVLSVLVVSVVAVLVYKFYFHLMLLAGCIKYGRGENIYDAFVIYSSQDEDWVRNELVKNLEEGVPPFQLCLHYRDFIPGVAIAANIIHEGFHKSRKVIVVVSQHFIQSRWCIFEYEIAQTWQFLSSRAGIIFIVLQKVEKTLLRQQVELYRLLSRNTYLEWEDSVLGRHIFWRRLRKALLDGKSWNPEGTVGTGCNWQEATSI
Sequence of AA-TGFB-084 (TGFB-084), TGF-BR2 ECD-NKp30 TM-NKp30 ICD (chain, as listed by the source limits assumed, form in doubt): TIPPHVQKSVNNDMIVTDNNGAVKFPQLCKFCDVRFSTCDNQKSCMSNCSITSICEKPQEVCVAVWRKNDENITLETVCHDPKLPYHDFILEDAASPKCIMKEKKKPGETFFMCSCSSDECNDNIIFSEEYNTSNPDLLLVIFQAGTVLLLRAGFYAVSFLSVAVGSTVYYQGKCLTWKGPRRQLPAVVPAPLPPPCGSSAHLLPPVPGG

- 5-Day Fold Expansion of NK cells, 10 ng/mL TGF-B1 [1]: 3.26 fold
- Average IFNg Secretion, 10 ng/mL TGF-B1 [1]: 7170 pg/mL
- Average IP-10 Secretion, 10 ng/mL TGF-B1 [1]: 1350
- 5-Day Fold Expansion of NK cells, 10 ng/mL TGF-B1 [2]: 2.51 fold
- Average IFNg Secretion, 10 ng/mL TGF-B1 [2]: 6060 pg/mL
- Average IP-10 Secretion, 10 ng/mL TGF-B1 [2]: 1260
- 5-Day Fold Expansion of NK cells, 10 ng/mL TGF-B1 [3]: 1.2 fold
- Average IFNg Secretion, 10 ng/mL TGF-B1 [3]: > 9000 pg/mL
- Average IP-10 Secretion, 10 ng/mL TGF-B1 [3]: 3210
- 5-Day Fold Expansion of NK cells, 10 ng/mL TGF-B1 [4]: 3.86 fold
- Average IFNg Secretion, 10 ng/mL TGF-B1 [4]: 4420 pg/mL
- Average IP-10 Secretion, 10 ng/mL TGF-B1 [4]: 1040
- 5-Day Fold Expansion of NK cells, 10 ng/mL TGF-B1 [5]: 3.86 fold
- Average IFNg Secretion, 10 ng/mL TGF-B1 [5]: > 9000 pg/mL
- Average IP-10 Secretion, 10 ng/mL TGF-B1 [5]: 2340
- 5-Day Fold Expansion of NK cells, 10 ng/mL TGF-B1 [6]: 2.08 fold
- Average IFNg Secretion, 10 ng/mL TGF-B1 [6]: 3960 pg/mL
- Average IP-10 Secretion, 10 ng/mL TGF-B1 [6]: 968
- 5-Day Fold Expansion of NK cells, 10 ng/mL TGF-B1 [7]: 1.6 fold
- Average IFNg Secretion, 10 ng/mL TGF-B1 [7]: 4640 pg/mL
- Average IP-10 Secretion, 10 ng/mL TGF-B1 [7]: 1040
- 5-Day Fold Expansion of NK cells, 10 ng/mL TGF-B1 [8]: 2.4 fold
- Average IFNg Secretion, 10 ng/mL TGF-B1 [8]: 5730 pg/mL
- Average IP-10 Secretion, 10 ng/mL TGF-B1 [8]: 1170
- 5-Day Fold Expansion of NK cells, 10 ng/mL TGF-B1 [9]: 0.71 fold
- Average IFNg Secretion, 10 ng/mL TGF-B1 [9]: 3130 pg/mL
- Average IP-10 Secretion, 10 ng/mL TGF-B1 [9]: 1030
- 5-Day Fold Expansion of NK cells, 10 ng/mL TGF-B1 [10]: 2.19 fold
- Average IFNg Secretion, 10 ng/mL TGF-B1 [10]: 4870 pg/mL
- Average IP-10 Secretion, 10 ng/mL TGF-B1 [10]: 1340
- 5-Day Fold Expansion of NK cells, 10 ng/mL TGF-B1 [11]: 0.24 fold
- 5-Day Fold Expansion of NK cells, 10 ng/mL TGF-B1 [12]: 1.29 fold
- Average IFNg Secretion, 10 ng/mL TGF-B1 [12]: 3090 pg/mL
- Average IP-10 Secretion, 10 ng/mL TGF-B1 [12]: 762
- 5-Day Fold Expansion of NK cells, 10 ng/mL TGF-B1 [13]: 1.69 fold
- Average IFNg Secretion, 10 ng/mL TGF-B1 [13]: 6080 pg/mL
- Average IP-10 Secretion, 10 ng/mL TGF-B1 [13]: 1890
- 5-Day Fold Expansion of NK cells, 10 ng/mL TGF-B1 [14]: 2.11 fold
- Average IFNg Secretion, 10 ng/mL TGF-B1 [14]: 4380 pg/mL
- Average IP-10 Secretion, 10 ng/mL TGF-B1 [14]: 1230
- 5-Day Fold Expansion of NK cells, 10 ng/mL TGF-B1 [15]: 0.41 fold
- Average IFNg Secretion, 10 ng/mL TGF-B1 [15]: 1.68 pg/mL
- 5-Day Fold Expansion of NK cells, 10 ng/mL TGF-B1 [16]: 2 fold
- Average IFNg Secretion, 10 ng/mL TGF-B1 [16]: > 9000 pg/mL
- Average IP-10 Secretion, 10 ng/mL TGF-B1 [16]: 2150
- CD69, fold-change of MFI over no stimulation, High (0.05 ug/mL) [16]: 1.2 fold
- CD69, fold-change of MFI over no stimulation, Low (0.002 ug/mL) [16]: 1.4 fold
- CD69, fold-change of MFI over no stimulation, Med. (0.01 ug/mL) [16]: 1.2 fold
- GFP, fold-change of MFI over no stimulation, High (0.05 ug/mL) [16]: 0.8 fold
- GFP, fold-change of MFI over no stimulation, Low (0.002 ug/mL) [16]: 0.7 fold
- GFP, fold-change of MFI over no stimulation, Med. (0.01 ug/mL) [16]: 0.7 fold
- 5-Day Fold Expansion of NK cells, 10 ng/mL TGF-B1 [17]: 1.11 fold
- Average IFNg Secretion, 10 ng/mL TGF-B1 [17]: 3070 pg/mL
- Average IP-10 Secretion, 10 ng/mL TGF-B1 [17]: 1230
Substance: recombinant TGF-B1 cytokine (from UniProt P01137 279-390) (ligand)
- Average % Killing (SKOV-3), 10 ng/mL TGF-B1 [1]: 20.4%
- Average % Killing (SKOV-3), 10 ng/mL TGF-B1 [2]: 11.9%
- Average % Killing (SKOV-3), 10 ng/mL TGF-B1 [3]: 16.5%
- Average % Killing (SKOV-3), 10 ng/mL TGF-B1 [4]: 9.64%
- Average % Killing (SKOV-3), 10 ng/mL TGF-B1 [5]: 14.4%
- Average % Killing (SKOV-3), 10 ng/mL TGF-B1 [6]: 14.1%
- Average % Killing (SKOV-3), 10 ng/mL TGF-B1 [7]: 11.8%
- Average % Killing (SKOV-3), 10 ng/mL TGF-B1 [8]: 11.2%
- Average % Killing (SKOV-3), 10 ng/mL TGF-B1 [9]: 9.68%
- Average % Killing (SKOV-3), 10 ng/mL TGF-B1 [10]: 13.7%
- Average % Killing (SKOV-3), 10 ng/mL TGF-B1 [11]: 1.9%
- Average % Killing (SKOV-3), 10 ng/mL TGF-B1 [12]: 8.9%
- Average % Killing (SKOV-3), 10 ng/mL TGF-B1 [13]: 11.8%
- Average % Killing (SKOV-3), 10 ng/mL TGF-B1 [14]: 10.8%
- Average % Killing (SKOV-3), 10 ng/mL TGF-B1 [15]: 2.07%
- Average % Killing (SKOV-3), 10 ng/mL TGF-B1 [16]: 24.1%
- Average % Killing (SKOV-3), 10 ng/mL TGF-B1 [17]: 8.77%
